This passage reports Kd results from publication PMC6377630, “NapM enhances the survival of Mycobacterium tuberculosis under stress and in macrophages” (Communications Biology, 2019).

In experiment [1] the target is DnaA (M. tuberculosis H37Ra) (UniProt P9WNW3). Kind of experiment: SPR; DnaA immobilised on CM5 chip (5.7 μM), NapM proteins passed over; Biacore 3000; 10 mM HEPES, 150 mM NaCl, 3 mM EDTA, 0.01% surfactant P20, pH 7.4; 25 °C. (In general: Surface plasmon resonance follows binding to a sensor surface in real time, without labels.)
The next experiment concerns the target T1, DnaA (M. tuberculosis H37Ra, UniProt P9WNW3 1-507).
T1 construct: also called DnaA protein
T1 sequence: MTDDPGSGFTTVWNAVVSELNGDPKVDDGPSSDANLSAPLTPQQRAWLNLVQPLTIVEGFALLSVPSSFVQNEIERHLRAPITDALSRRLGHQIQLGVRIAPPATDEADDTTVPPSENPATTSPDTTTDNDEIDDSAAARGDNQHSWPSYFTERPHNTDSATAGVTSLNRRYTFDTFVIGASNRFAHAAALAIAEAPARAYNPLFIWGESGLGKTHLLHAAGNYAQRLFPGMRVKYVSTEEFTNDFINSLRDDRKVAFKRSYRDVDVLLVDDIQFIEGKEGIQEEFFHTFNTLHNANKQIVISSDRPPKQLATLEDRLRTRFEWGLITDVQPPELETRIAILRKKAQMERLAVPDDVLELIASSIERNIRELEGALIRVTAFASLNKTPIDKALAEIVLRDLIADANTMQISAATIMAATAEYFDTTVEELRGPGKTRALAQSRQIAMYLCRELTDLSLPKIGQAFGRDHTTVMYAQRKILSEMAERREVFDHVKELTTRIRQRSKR
The description is as above. The conditions noted are these: both partners purified.

The Kd is the equilibrium constant for the complex coming apart. Read a low Kd as a tighter complex. With “NapM C-terminal domain (CTD) (domain or fragment)”, in experiment [1], the Kd came to 500 nM.

B1: NapM (Rv0047c), nucleoid-associated protein (natural protein)
chain: MLELAILGLLIESPMHGYELRKRLTGLLGAFRAFSYGSLYPALRRMQADGLIAENAAPAGTPVRRARRVYQLTDKGRRRFGELVADTGPHNYTDDGFGVHLAFFNRTPAEARMRILEGRRRQVEERREGLREAVARASSSFDRYTRQLHQLGLESSEREVKWLNELIAAERAAPNPAEQT
In turn, B1 registered a Kd with DnaA of 380 nM.
